The nature of the data set: yeast display, Sf9 membrane polyspecificity reagent, FACS + sequencing; frameworks hold sequencing errors. In short, it runs like this:
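Synthetic nanobody libraries on Saccharomyces cerevisiae BJ5465 were galactose-induced for 36–48 hours, stained 1 hour at 4 °C with 10% biotinylated, detergent-solubilized Sf9 membrane reagent and enriched on streptavidin microbeads. FACS then separated cells into low and high (top ~1%) gates by anti-HA (expression) and streptavidin (reagent binding) fluorescence. Genes were colony-PCR amplified, MiSeq 2 × 250 sequenced and CDR-length filtered. A clone's polyreactivity label is that of its gate of origin.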
As for “QVQHVESGVGLVQAGGSLRLSCASSGLTFQYYSMGWYRQAPGKERELVAAISRRGGSTYYADSVKGRFTISRDNAKNTVYLQMNSLKPEDTAVYYCARYSYRGTNVRYDYWGQGTQVTVSS”, the “polyreactivity (PSR sort gate)” value is “high polyreactivity”.

“QVQHVESRGGLDPAGGSLRLSCAASGRIFRGNAMGWSSQATGKERELVASITWRGTSTYYADSVKGRFTISRDIAMNTVYLQMNSLKPEDTAVYYCNAVTQTRGYYWGQGTQVTVSS”: the “polyreactivity (PSR sort gate)” value is “high polyreactivity”.

For the sequence “QVQHVESRGGLVQAGGSLRLSCAASGNTFWYNAMGWYRQAPGKERELVAAITTSDFGTYYADSVKGRFTISRDNAKNTVYLQMNSLKPEDTAVYYCAAEVYTQRPYYYPAYDYWGQGTQVTVSS”, the “polyreactivity (PSR sort gate)” value is on record as “high polyreactivity”.

Consider “QVQHVESVGGLDQAGGSLRLSSAASGRTFYLYAMGWYRQATGKEREFVADINSSGGSTYYADSVKGRFTISRDNAKNTVYLQMNSLKPEDTAVYYCAAYPIPRGRDYWGQGTQVTVSS”, for which the “polyreactivity (PSR sort gate)” value is “low polyreactivity”.

Turning to “QVQHVESVGGLDQAGRSLRLSCAASGSTFTPYAMGWYRQAPGKESELVAGITGNGGSTRYADSVKGRFTISRDNAKKTVYLQMNSLKPEDTAVYYCAARWTRQRYRTSYYSWGQGTQVTVSS”, the “polyreactivity (PSR sort gate)” value was “high polyreactivity”.

On to “QVQHVESVGGLLQAGCSLRLSCAPSGRIFGENAIGWYRQAPGKEREFLAVISISDASTYYADSVKGRFTISRDNAKNTGYLQMNSLKPDDTAVYYCAADLTDFLYVASDYWGQGTQVTVSS”, for which the “polyreactivity (PSR sort gate)” value is “low polyreactivity”.

Consider “QVQHVESVGGLVQAGGSLPLSCDASGSIFGPNAMGWYRQAPGKESELVAAISGSGGSTYYADSVKGRFTISRDNAKNTVYLQMNSLKPEATAVYYCAADLDGTLSVYDYHTTGDDYWGQGTQVTVSS”, for which the “polyreactivity (PSR sort gate)” value is recorded as “low polyreactivity”.

Regarding “QVQHVESVGGLVQAGGSLRLSCAASGFIFRRYVMGWNRQAPGKERELVAAISYGGGSTYYADSVKGRFTISRDNAKNTVYLQMNCLKPEDTAVYYCNAVSYNLAAYEYWGQGTQVTVSS”, the “polyreactivity (PSR sort gate)” value was “high polyreactivity”.

For the sequence “QVQHVESVGGLVQAGGSLRLSCAASGFISDWYAMGWYRQAPGKERELVATIDWIGGSTYADSVKGRFTISRDNAKNTVYLQMNSLKPEDTAVYYCAADSYFIAWYGAHYAYDYWGQGTQVTVSS”, the “polyreactivity (PSR sort gate)” value is recorded as “low polyreactivity”.

In the case of “QVQHVESVGGLVQAGGSLRLSCAASGSIFDDYAMGWYRPAPGKERELVAAISSSGTSTYYADSVKGRFTISRDNAKNTVYLQMNSLKPEDTAVYYCAARSAILKSGYLMDYWGQGTQVTVSS”, the “polyreactivity (PSR sort gate)” value was “low polyreactivity”.

On to “QVQHVETGGGLVQAGCSLRLSCAASGRTFLWNAMGWYRQERGNERELGARINLSGGRTYYADSVKGRFTISRDNAKNSVYLQMNSLKPEETAVYYCAAPVVRYRRDSWGQGTQVTVSS”, for which the “polyreactivity (PSR sort gate)” value is “low polyreactivity”.

With “QVQHVQSGGGLVQAGGSLRLSCAAAGFIYNNAMGWYRQAPGKETELVATISTSGTDTYYADSVKGRFTISRDNAKNTVYLQMNSLKPEDTAVYYCNADTEIYDSYSSYWTRYEYWGQGTQVTVSS”, the “polyreactivity (PSR sort gate)” value is reported as “low polyreactivity”.

As for “QVQIEESGGGLVQAGGSLPLSCAASGTIFKYYTRGWYRLAPGKERELFAAISGSGGTTYYADSVKGRFTISRDNAKNTVYLQMNSLKPEDTAVYYCATAYYRAFRGDYWGQGTQVTVSS”, the “polyreactivity (PSR sort gate)” value is “high polyreactivity”.

Consider “QVQIEESGGGLVQAGGSLRLSCAASGSTFGYYAMGWYRQAPGKERELVAAISRGGSTYYADSVKGRFTISRDIAKYTVYLQMHSLKPEDTAVYYCNAVRYLEYDWGQGTQVTVSS”, for which the “polyreactivity (PSR sort gate)” value is “high polyreactivity”.

In the case of “QVQILESGGGLVQAGVSLRLSCAPSGSTFSRNAMAWYRQAPGKERELVAAISSSGGRTYYAESVKVRFTISRDNAKNTVYLQMNSLTPEDTAVYYCAAAFSLGMYWGQGTLVTVSS”, the “polyreactivity (PSR sort gate)” value was “high polyreactivity”.

“QVQIVDSGGGLVHAGGSLRLSCADSGSIFSGNAKAWYIQATGKERELVAAISRSGGSTYYADSVKGRFTISRDNAKNTVYLQMNSLKPEDTAVYYCNAGRYRAGGWGVGEGYWGQGTQVTVSS”: the “polyreactivity (PSR sort gate)” value is reported as “high polyreactivity”.

Take “QVQIVDSGGGLVQAGGSLRLSCDASGRLISRKAMGWYRQAPGKERELVAAITSGGSTYYADSVKGRFTISRDNAKNTVYLQMNSLKPEDTAVYYCAAVYRGVDSRWYCYDYWGQGTQVTVSS”: the “polyreactivity (PSR sort gate)” value is recorded as “low polyreactivity”.

Take “QVQIVESGAGLVQAGGSLRISCAASGRIFRYYAMGWYRQAPGKERELVAAITVSGGSKYYADSVKGRFTISRDNAKNTVYLQMNSLKPEDTAVYYCAKALRSYLFIHFDYWVQGTQVTVSS”: the “polyreactivity (PSR sort gate)” value is on record as “low polyreactivity”.

For the sequence “QVQIVESGGALYQAGGSLRLICAASGSTFSQYAMGWYRQEPGKERELLPTINSGGSTNYADSVKGRFTISRDNAMNTVYLQMNSLKPEETAVYYCAAREDLYLYYNGQRVQYDYWGQGTQVTVSS”, the “polyreactivity (PSR sort gate)” value was “low polyreactivity”.

“QVQIVESGGCLVQAGGSLRLSCAASGRTFGRNAMGWYRQAPGKERELVAGISIGGGTTYYADSVKGRFTISRDNAKNTVYLQMNSLKPEDTAVYYCAARSWSYLHRYGYWGQGTQVTVSS”: the “polyreactivity (PSR sort gate)” value is “high polyreactivity”.

In the case of “QVQIVESGGGLLQAGGSLPLTCAASGSTFDDNAQGWYRLAPGKERELVAAISYSGGSTYYADSVKGRFTISRDNAKNTVYLQMNSLKPEDPAVYYCAADDLYTDYETWWRRGDYWGQGTQVTVSS”, the “polyreactivity (PSR sort gate)” value was “low polyreactivity”.

Take “QVQIVESGGGLVQAGASLSLSCAASGSIFGTNAMGWYRQAPGKERELVAAISSAGASTYYADSVKGRFTISRDNAKNTVYLQMNSLKPEDTAVYYCARGYTYQSSSFYYWGQGTQVTVSS”: the “polyreactivity (PSR sort gate)” value was “low polyreactivity”.

“QVQIVESGGGLVQAGGNLRLSCAASGFIFTRYAMGWYRQAPGKERELVAAISTSVDRTYYADSVKGRFSISRDNAKNTVYLQMNSLKPEDTAVYYCAVVRPRSVGRYDYWGQGTQVTVSS”: the “polyreactivity (PSR sort gate)” value is given as “high polyreactivity”.

For “QVQIVESGGGLVQAGGSLPLSCDASGITFERYDMGWYRQAPGKERELGAAISTTGGRTYYADSVKGRFTISRDNAKNSVYLQMNSLKPEDTAVYYCAARYTTRRRYDYWGQGTQVTVSS”, the “polyreactivity (PSR sort gate)” value is “high polyreactivity”.

For the sequence “QVQIVESGGGLVQAGGSLRISCAASGFIFNRYAMGWYRQAPGTERELVADITGGSTYFADSVKGRFTISRDNAKNTVYLLMKSLKPEDTAVYYCAADVLRISTLLFRGPGFDYWGQGTQVTVSS”, the “polyreactivity (PSR sort gate)” value is “low polyreactivity”.

Consider “QVQIVESGGGLVQAGGSLRLSCAASGFIFDFYTMGWYRQAPGKERELVAAITWSGDSTYYADSVKGRFTISRDNAKNTVYLQMNSLKPEDTGVYYCAADWWGVWYFDYDYWGQGTQVTVSS”, for which the “polyreactivity (PSR sort gate)” value is “low polyreactivity”.

In the case of “QVQIVESGGGLVQAGGSLRLSCAASGFIFDYNAMGWYRQAPGKERELVAAISYSGGRTSYADSVKGRFTISRDNAKNTVYLQMNSLKPEDTAVYYCAKDNYVDFGGYYYPRMYYWGQGTQVTVSS”, the “polyreactivity (PSR sort gate)” value is “high polyreactivity”.

For “QVQIVESGGGLVQAGGSLRLSCAASGFIFNIYAMGWYRQAPGKERELVAAITFSGGSTYYADSVKGRFTISRDNAKNTVYFQMNSLKPEDTAVYYCAADYLSEYTTYDYWGQGTQVTVSS”, the “polyreactivity (PSR sort gate)” value is reported as “low polyreactivity”.

Consider “QVQIVESGGGLVQAGGSLRLSCAASGFTFGVYAMGWYRQAPGKERELVAAISVSGGRTYYADSVKGRFTISRDNAKNTVYLQMNSLKPEDTAVYYCAADLGLKTSSRRTSMYYWGQGTQVTVSS”, for which the “polyreactivity (PSR sort gate)” value was “high polyreactivity”.

Take “QVQIVESGGGLVQAGGSLRLSCAASGFTLHRNAMGWYRQAPGKERELVANISWTGGSTYYADSVKGRFTISRDNAKNTVYLQMNSLKPEDTAVYYCAARGHWSIYGYYYLGATAFGYWGQGTQVTVSS”: the “polyreactivity (PSR sort gate)” value was “low polyreactivity”.

“QVQIVESGGGLVQAGGSLRLSCAASGGTFLPYAMGSYRQAPGKERELVATITLIGDSTYYADSVKGRFTISRDNAKNTVYLQMNSLKPEDTAVYYCAARPVTSYAYGSWGQGSQVTVSS”: the “polyreactivity (PSR sort gate)” value is listed as “low polyreactivity”.

With “QVQIVESGGGLVQAGGSLRLSCAASGIIFYYYAMGWYRPAPGKERELVAGISYSGGSTYADSVKGLFTISRDNAKNTVYLQMNSLKPEDTAVYDCAADYDYGGHWYDYWGQGTQVTVSS”, the “polyreactivity (PSR sort gate)” value is recorded as “low polyreactivity”.

Take “QVQIVESGGGLVQAGGSLRLSCAASGITFVGNAMVWYRQAPGKERELVAVISRGDSTNYADSVKGLFTISRDNAKNTVYLQMNSLKPEDTAVYYCAADGSRAGQEGNDYWGQGTQVSVSS”: the “polyreactivity (PSR sort gate)” value was “low polyreactivity”.

“QVQIVESGGGLVQAGGSLRLSCAASGNIFDRYAMGWYRQAPGKERELVAGITWSGGSTYYADSVKGRFTISRDNAKNTVYLQMNSLKPDDTAVYYCGQANYYWGLGTQVTVSS”: the “polyreactivity (PSR sort gate)” value is “low polyreactivity”.

With “QVQIVESGGGLVQAGGSLRLSCAASGRIFDGYAMGWYRQAPGKERELVAAISLSDGSTYYADSVKGRFTISRDHAKNTVYLQMNILKPEDTAVYYCAARVQHYLATDDYWGQGTQVTVSS”, the “polyreactivity (PSR sort gate)” value is “low polyreactivity”.

Consider “QVQIVESGGGLVQAGGSLRLSCAASGRIFGFNAMAWYRQAPGKERELVAAISWSSGRTYYADSVKGRFTISRDNAKNTVYLQMNSLKPEDTAVYYCAADQWGGGDDYWGQGTQVTVSS”, for which the “polyreactivity (PSR sort gate)” value is “high polyreactivity”.

Consider “QVQIVESGGGLVQAGGSLRLSCAASGRIFVVNDMGWYRPATGKERELVAAINSGGRTNYADSVKGRFTISRDNAKNTVDLQMNSLKREATAVYFCNAKRTGPWFLHVPVYYWGQGTQVTVSS”, for which the “polyreactivity (PSR sort gate)” value is recorded as “low polyreactivity”.

Consider “QVQIVESGGGLVQAGGSLRLSCAASGRIFYKNAMGWYRQAPGKERELVAAISNVGSTYYADSVKGRFTISRDNAKTTVYLQMNSLKPEDTAVYYCNKRIYHLFTYDFWGQGTQVTVSS”, for which the “polyreactivity (PSR sort gate)” value is “high polyreactivity”.

Turning to “QVQIVESGGGLVQAGGSLRLSCAASGRILWFYAMGWYRHAPGKERELVAAITDSGGSTYYADSVKGRFTISRDNAKNPVYLQMNSLKPEDTAVYYCAADGDRYISGGGLAHYDYWGQGTQVNVSS”, the “polyreactivity (PSR sort gate)” value is reported as “low polyreactivity”.

Regarding “QVQIVESGGGLVQAGGSLRLSCAASGRTFRANAMGWYRQAPGKERELVAAIRTGTRTYYADSVKGRFTISRDNANNTVYFQMNSLKTVDSAVYYCAARYYHPYSHGYWQERDYWGQGTKVTVSS”, the “polyreactivity (PSR sort gate)” value was “high polyreactivity”.

For the sequence “QVQIVESGGGLVQAGGSLRLSCAASGRTFYFYVMGWYRQAPGKERELVAAISWSGTSTYYADSVKGRFTISRDNAKNTVYLQMNSLKPEDTAVYYCNGITRYDYWGQGTQVTVSS”, the “polyreactivity (PSR sort gate)” value is given as “low polyreactivity”.
